Biological target: HA-tagged full-length pebble (Pbl) (Drosophila)
Experiment: co-IP

| percent reduction in binding against wild-type ICD | Substance |
| --- | --- |
| 33% | Sema-1a ICD[36G/52A] (domain or fragment) |
| 44% | Sema-1a ICD[Δ31–60] (domain or fragment) |

Source: paper PMC3520155
